PMC6296668
Where “and” joins values, the source holds several entries; their conditions need not be identical. Identical values can stand only once.

Experiments:
[1] = molecular target: CAP256 SU gp140-FL-IP (HIV-1 subtype C (CAP256 SU)); test: native gel or EMSA; NativePAGE Novex 3-12% Bis-Tris gels (BN-PAGE) of lectin-purified protein, Coomassie stain or anti-gp160 western blot; oligomer judged by molecular weight against NativeMark standard
[2] = molecular target: CAP256 gp140-FL-IP-His (HIV-1 subtype C (CAP256 SU)); test: as above

| Substance | stoichiometry N [1] | stoichiometry N [2] |
| --- | --- | --- |
| CAP256 SU gp140-FL-IP (domain or fragment) | 3 | – |
| CAP256 gp140-FL-IP-His (domain or fragment) | – | 3 and 2 |
